# T1: GST-Yap8 WT (Saccharomyces cerevisiae, UniProt Q06596 1-294)
# T1 sequence: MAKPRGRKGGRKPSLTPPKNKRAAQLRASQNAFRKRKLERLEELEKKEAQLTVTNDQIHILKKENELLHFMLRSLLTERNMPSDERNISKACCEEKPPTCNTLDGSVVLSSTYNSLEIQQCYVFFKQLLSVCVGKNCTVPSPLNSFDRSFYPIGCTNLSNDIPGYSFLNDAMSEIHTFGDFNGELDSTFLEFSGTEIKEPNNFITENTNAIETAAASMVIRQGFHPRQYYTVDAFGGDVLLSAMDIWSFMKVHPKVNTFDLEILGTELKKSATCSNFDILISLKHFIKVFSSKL
# T2: GST-Yap8-R7A (Saccharomyces cerevisiae, UniProt Q06596 1-294, R7A)
# T2 sequence: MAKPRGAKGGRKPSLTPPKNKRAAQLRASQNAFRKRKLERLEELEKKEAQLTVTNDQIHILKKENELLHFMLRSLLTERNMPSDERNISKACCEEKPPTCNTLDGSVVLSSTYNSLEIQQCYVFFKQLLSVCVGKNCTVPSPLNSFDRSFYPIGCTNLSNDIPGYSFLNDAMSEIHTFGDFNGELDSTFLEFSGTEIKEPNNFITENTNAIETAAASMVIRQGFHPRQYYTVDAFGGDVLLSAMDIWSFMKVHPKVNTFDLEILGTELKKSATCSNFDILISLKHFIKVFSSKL
# T3: GST-Yap8-R11A (Saccharomyces cerevisiae, UniProt Q06596 1-294, R11A)
# T3 sequence: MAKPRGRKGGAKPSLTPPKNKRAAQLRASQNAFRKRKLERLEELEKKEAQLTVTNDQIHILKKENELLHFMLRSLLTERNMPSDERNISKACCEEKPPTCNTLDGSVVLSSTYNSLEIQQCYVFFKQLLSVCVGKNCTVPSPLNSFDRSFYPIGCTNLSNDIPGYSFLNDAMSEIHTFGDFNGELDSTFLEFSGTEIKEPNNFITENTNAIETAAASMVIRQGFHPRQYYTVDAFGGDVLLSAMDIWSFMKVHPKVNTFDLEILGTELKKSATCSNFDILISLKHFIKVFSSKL
# T4: GST-Yap8-N20A (Saccharomyces cerevisiae, UniProt Q06596 1-294, N20A)
# T4 sequence: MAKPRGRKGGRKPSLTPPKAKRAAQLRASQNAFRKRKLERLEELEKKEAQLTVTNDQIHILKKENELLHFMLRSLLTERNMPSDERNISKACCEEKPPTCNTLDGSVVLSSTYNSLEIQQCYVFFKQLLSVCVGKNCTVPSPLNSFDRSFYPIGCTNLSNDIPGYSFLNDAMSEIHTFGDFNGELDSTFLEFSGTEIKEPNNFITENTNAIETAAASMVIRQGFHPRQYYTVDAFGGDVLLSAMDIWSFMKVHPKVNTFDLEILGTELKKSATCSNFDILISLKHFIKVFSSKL
# Columns and labels:
# Details in all cases: protein: recombinant; tags: GST (N-term); chain copies: 2; label: 5' FAM; blunt
# GST-Yap8 WT [1] = target: T1, GST-Yap8 WT; experiment: fluorescence anisotropy; series c; FA: 10 mM Tris-HCl pH 8, 50 mM NaCl, 0.5% NP-40, 1 mM DTT, 5% glycerol, 1 nM DNA, 25C (half volume protein elution buffer). Biotin EMSA: LightShift 1x buffer, 50 ng poly(dI-dC), 2.5% glycerol, 0.05% NP-40, 5 mM MgCl2, 20 fmol probe, RT 20 min. 32P EMSA: 10 mM Tris-HCl pH 8.0, 50 mM NaCl, 1 mM DTT, 0.05% NP-40, 100 ng poly(dI-dC), 6% glycerol, 4C 30 min
# GST-Yap8-R7A = target: T2, GST-Yap8-R7A; experiment: fluorescence anisotropy; series b; FA: 10 mM Tris-HCl pH 8, 50 mM NaCl, 0.5% NP-40, 1 mM DTT, 5% glycerol, 1 nM DNA, 25C (half volume protein elution buffer). Biotin EMSA: LightShift 1x buffer, 50 ng poly(dI-dC), 2.5% glycerol, 0.05% NP-40, 5 mM MgCl2, 20 fmol probe, RT 20 min. 32P EMSA: 10 mM Tris-HCl pH 8.0, 50 mM NaCl, 1 mM DTT, 0.05% NP-40, 100 ng poly(dI-dC), 6% glycerol, 4C 30 min
# GST-Yap8 WT [2] = target: T1, GST-Yap8 WT; experiment: as above
# GST-Yap8-R11A = target: T3, GST-Yap8-R11A; experiment: as above
# GST-Yap8-N20A = target: T4, GST-Yap8-N20A; experiment: fluorescence anisotropy; series a; FA: 10 mM Tris-HCl pH 8, 50 mM NaCl, 0.5% NP-40, 1 mM DTT, 5% glycerol, 1 nM DNA, 25C (half volume protein elution buffer). Biotin EMSA: LightShift 1x buffer, 50 ng poly(dI-dC), 2.5% glycerol, 0.05% NP-40, 5 mM MgCl2, 20 fmol probe, RT 20 min. 32P EMSA: 10 mM Tris-HCl pH 8.0, 50 mM NaCl, 1 mM DTT, 0.05% NP-40, 100 ng poly(dI-dC), 6% glycerol, 4C 30 min
# GST-Yap8 WT [3] = target: T1, GST-Yap8 WT; experiment: as above
binder,measurement,setting,value
ACR3-WT (FAM) (dsDNA) DNA 1: CTTTTTGTTTGATTAATAATCAACTTTAGCG DNA 2: CGCTAAAGTTGATTATTAATCAAACAAAAAG,Kd,GST-Yap8 WT [1],0.0108 ± 0.0035 µM
same,Kd,GST-Yap8-R7A,0.0134 ± 0.0017 µM
same,Kd,GST-Yap8 WT [2],0.0108 ± 0.0017 µM
same,Kd,GST-Yap8-R11A,0.0189 ± 0.0029 µM
same,Kd,GST-Yap8-N20A,0.0255 ± 0.0043 µM
same,Kd,GST-Yap8 WT [3],0.0099 ± 0.0014 µM

# Reference: publication PMC7261193, “The ancillary N-terminal region of the yeast AP-1 transcription factor Yap8 contributes to its DNA binding specificity”
